From patent US20090029467A1 come the findings set out here.

Where two headings read alike, the source gives them in different places.

Experiment in all cases: cell-based or functional assay
The target of experiment [1] is cation-independent mannose-6-phosphate/IGF-II receptor on GM4668 human skin fibroblasts (human) (UniProt P11717).
For experiment [2] the target is unchanged. The source holds these as a separate data set.
The target is the same in experiment [3]. This is another data set of the same source.
For experiment [4] the target is unchanged. The source holds these as a separate data set.

Sequence of UniProt P11717 (P11717 41-2491): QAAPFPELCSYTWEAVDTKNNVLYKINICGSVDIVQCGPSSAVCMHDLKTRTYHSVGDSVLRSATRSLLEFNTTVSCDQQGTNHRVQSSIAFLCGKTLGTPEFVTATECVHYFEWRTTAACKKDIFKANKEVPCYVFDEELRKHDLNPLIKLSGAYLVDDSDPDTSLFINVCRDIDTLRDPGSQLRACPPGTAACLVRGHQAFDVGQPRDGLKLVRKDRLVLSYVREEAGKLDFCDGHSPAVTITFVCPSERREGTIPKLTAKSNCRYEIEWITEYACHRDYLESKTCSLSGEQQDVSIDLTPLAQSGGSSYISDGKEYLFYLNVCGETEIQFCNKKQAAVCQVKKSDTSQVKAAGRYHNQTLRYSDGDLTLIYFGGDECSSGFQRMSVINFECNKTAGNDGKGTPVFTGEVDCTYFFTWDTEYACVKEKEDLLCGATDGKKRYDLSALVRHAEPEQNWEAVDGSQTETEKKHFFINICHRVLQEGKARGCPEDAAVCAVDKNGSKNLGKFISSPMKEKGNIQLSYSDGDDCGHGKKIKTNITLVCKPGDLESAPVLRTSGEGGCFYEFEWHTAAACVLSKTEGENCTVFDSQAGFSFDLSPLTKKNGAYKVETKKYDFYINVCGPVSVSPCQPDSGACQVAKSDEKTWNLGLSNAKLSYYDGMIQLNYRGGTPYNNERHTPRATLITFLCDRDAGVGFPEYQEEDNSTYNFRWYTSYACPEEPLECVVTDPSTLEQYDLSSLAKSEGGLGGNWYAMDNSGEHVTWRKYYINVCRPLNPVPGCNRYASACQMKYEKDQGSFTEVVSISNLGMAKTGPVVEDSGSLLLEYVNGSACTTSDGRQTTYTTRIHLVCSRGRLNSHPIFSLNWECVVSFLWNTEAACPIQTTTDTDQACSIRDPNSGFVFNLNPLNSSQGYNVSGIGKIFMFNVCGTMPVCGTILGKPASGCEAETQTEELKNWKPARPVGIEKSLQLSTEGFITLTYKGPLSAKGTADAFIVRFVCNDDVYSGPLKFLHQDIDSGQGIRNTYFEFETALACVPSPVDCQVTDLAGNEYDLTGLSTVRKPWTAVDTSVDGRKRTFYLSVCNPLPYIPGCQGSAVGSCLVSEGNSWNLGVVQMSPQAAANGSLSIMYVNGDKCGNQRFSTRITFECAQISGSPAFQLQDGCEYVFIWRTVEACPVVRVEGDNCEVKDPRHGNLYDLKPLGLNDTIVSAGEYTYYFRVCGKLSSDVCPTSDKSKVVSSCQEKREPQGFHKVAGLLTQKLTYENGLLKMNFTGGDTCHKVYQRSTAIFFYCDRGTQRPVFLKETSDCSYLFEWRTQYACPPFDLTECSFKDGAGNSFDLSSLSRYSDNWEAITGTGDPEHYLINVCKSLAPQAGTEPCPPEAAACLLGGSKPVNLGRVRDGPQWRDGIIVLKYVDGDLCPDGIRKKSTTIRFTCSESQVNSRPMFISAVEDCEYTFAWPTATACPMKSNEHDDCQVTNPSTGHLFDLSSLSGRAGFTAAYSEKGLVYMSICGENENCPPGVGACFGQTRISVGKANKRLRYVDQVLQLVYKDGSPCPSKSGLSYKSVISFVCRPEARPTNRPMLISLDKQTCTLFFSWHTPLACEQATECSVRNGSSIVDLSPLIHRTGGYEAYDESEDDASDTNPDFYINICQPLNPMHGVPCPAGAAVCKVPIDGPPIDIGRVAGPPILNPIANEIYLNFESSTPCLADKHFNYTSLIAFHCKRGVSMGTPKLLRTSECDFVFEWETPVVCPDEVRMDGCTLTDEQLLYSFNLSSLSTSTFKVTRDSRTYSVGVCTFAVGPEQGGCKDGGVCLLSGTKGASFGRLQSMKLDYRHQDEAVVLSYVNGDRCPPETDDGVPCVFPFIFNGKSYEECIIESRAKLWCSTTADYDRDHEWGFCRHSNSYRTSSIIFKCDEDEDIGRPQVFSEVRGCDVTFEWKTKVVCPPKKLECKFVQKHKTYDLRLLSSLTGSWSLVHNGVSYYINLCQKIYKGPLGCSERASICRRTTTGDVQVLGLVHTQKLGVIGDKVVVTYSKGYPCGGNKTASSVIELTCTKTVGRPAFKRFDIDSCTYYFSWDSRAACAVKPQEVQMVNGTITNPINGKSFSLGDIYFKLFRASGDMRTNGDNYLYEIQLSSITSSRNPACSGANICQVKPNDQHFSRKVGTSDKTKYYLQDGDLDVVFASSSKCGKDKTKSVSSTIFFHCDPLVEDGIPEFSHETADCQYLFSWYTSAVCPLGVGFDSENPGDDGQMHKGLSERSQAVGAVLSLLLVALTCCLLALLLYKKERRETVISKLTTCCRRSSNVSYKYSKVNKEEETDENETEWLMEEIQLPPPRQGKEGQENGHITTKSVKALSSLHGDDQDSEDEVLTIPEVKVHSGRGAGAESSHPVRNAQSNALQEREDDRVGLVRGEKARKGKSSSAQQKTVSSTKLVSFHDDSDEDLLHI

In experiment [1], “CHO GUS-GILTΔ1-7 (from UniProt P08236 23-651)” displayed a % IGF-II inhibition of uptake of 73%; a % M6P inhibition of uptake of 28%; a +IGF-II (units/mg), uptake with excess IGF-II of 84 units/mg; a +M6P (units/mg), uptake with excess M6P of 223 units/mg. This molecule also gave an Uptake (units/mg), 18 h in experiment [1] of 310 units/mg.
As for “CHO GUSΔC18-GILTΔ1-7 (from UniProt P08236 23-633)”, in experiment [2], the % IGF-II + M6P inhibition of uptake is 100%; the % IGF-II inhibition of uptake was 70%; the % M6P inhibition of uptake turned out to be 60%; the +IGF-II (units/mg), uptake with excess IGF-II was found to be 473 units/mg. For the same molecule, in experiment [2], the +IGF-II + M6P (units/mg), uptake with both inhibitors stood at 0 units/mg; the +M6P (units/mg), uptake with 8 mM M6P worked out at 639 units/mg; the Uptake (units/mg), 22.5 h was found to be 1580 units/mg. In experiment [1], this molecule returned a % IGF-II inhibition of uptake of 63%; a % M6P inhibition of uptake of 41%; a +IGF-II (units/mg), uptake with excess IGF-II of 258 units/mg; a +M6P (units/mg), uptake with excess M6P of 412 units/mg. In experiment [1], this molecule gave an Uptake (units/mg), 18 h of 704 units/mg. Besides, in experiment [3], the % IGF-II inhibition of uptake was found to be 75%; the +IGF-II Uptake (units/mg) worked out at 1010 units/mg; the Uptake (units/mg), 21 h is 4080 units/mg.
“GILT-GUS with Δ1-7 and Y27L mutations in the IGF-II portion, Leishmania-expressed (from UniProt P08236 23-651)” returned a cell-associated GUS activity in GM4668 fibroblasts, relative to unmodified GUS in experiment [1] of 5 fold.
In experiment [1], “GUS-IGF-II fusion protein (GUS-GILT), Leishmania-expressed” yielded a cell-associated GILT-GUS in GM4668 fibroblasts, no competitor (units/mg lysate) of more than 24; a cell-associated GILT-GUS in GM4668 fibroblasts, with about 100-fold molar excess of IGF-II of 5.4 U; a cell-associated GUS activity in GM4668 fibroblasts, relative to unmodified GUS of 10 fold.
For “HEK GUS-GILT (from UniProt P08236 23-651)”, the Uptake (units/mg), 21 h in experiment [3] stood at 1430 units/mg.
With “HEK GUS-GILTF19S (from UniProt P08236 23-651)”, in experiment [2], the % IGF-II + M6P inhibition of uptake was 99.1%; the % IGF-II inhibition of uptake was determined as 86%; the % M6P inhibition of uptake amounted to 60%; the +IGF-II (units/mg), uptake with excess IGF-II is 217 units/mg. For the same molecule, in experiment [2], the +IGF-II + M6P (units/mg), uptake with both inhibitors is 15 units/mg; the +M6P (units/mg), uptake with 8 mM M6P was found to be 952 units/mg; the Uptake (units/mg), 22.5 h was 1590 units/mg. In experiment [3], the % IGF-II inhibition of uptake stood at 90.7%; the +IGF-II Uptake (units/mg) was determined as 439 units/mg; the Uptake (units/mg), 21 h was found to be 4730 units/mg.
On to “HEK GUS-GILTF19SE12K (from UniProt P08236 23-651)”, for which, in experiment [2], the % IGF-II + M6P inhibition of uptake turned out to be 100%; the % IGF-II inhibition of uptake amounted to 98.2%; the % M6P inhibition of uptake is 31%; the +IGF-II (units/mg), uptake with excess IGF-II was found to be 22 units/mg. Besides, in experiment [2], the +IGF-II + M6P (units/mg), uptake with both inhibitors worked out at 0 units/mg; the +M6P (units/mg), uptake with 8 mM M6P was determined as 846 units/mg; the Uptake (units/mg), 22.5 h was 1230 units/mg. Besides, in experiment [3], the % IGF-II inhibition of uptake stood at 90.8%; the +IGF-II Uptake (units/mg) was determined as 388 units/mg; the Uptake (units/mg), 21 h turned out to be 4230 units/mg.
In the case of “HEK GUS-GILTY27L (from UniProt P08236 23-651)”, in experiment [3], the Uptake (units/mg), 21 h was 1510 units/mg.
In experiment [3], “HEK GUSΔC18-GILTΔ1-7 (from UniProt P08236 23-633)” came in with a % IGF-II inhibition of uptake of 77%; a +IGF-II Uptake (units/mg) of 1210 units/mg; an Uptake (units/mg), 21 h of 5190 units/mg.

B1: CHO GUS (enzyme, UniProt P08236 23-651, looked up)
chain: LQGGMLYPQESPSRECKELDGLWSFRADFSDNRRRGFEEQWYRRPLWESGPTVDMPVPSSFNDISQDWRLRHFVGWVWYEREVILPERWTQDLRTRVVLRIGSAHSYAIVWVNGVDTLEHEGGYLPFEADISNLVQVGPLPSRLRITIAINNTLTPTTLPPGTIQYLTDTSKYPKGYFVQNTYFDFFNYAGLQRSVLLYTTPTTYIDDITVTTSVEQDSGLVNYQISVKGSNLFKLEVRLLDAENKVVANGTGTQGQLKVPGVSLWWPYLMHERPAYLYSLEVQLTAQTSLGPVSDFYTLPVGIRTVAVTKSQFLINGKPFYFHGVNKHEDADIRGKGFDWPLLVKDFNLLRWLGANAFRTSHYPYAEEVMQMCDRYGIVVIDECPGVGLALPQFFNNVSLHHHMQVMEEVVRRDKNHPAVVMWSVANEPASHLESAGYYLKMVIAHTKSLDPSRPVTFVSNSNYAADKGAPYVDVICLNSYYSWYHDYGHLELIQLQLATQFENWYKKYQKPIIQSEYGAETIAGFHQDPPLMFTEEYQKSLLEQYHLGLDQKRRKYVVGELIWNFADFMTEQSPTRVLGNKKGIFTRQRQPKSAAFLLRERYWKIANETRYPHSVAKSQCLENSLFT
In experiment [4], B1 showed a % IGF-II inhibition of uptake of 5%; a % M6P inhibition of uptake of 99.7%; a % inhibition of uptake by excess IGF-II of 4.5%; a +IGF-II (units/mg), uptake with excess IGF-II of 336 units/mg. In experiment [4], this molecule came in with a +M6P (units/mg), uptake with excess M6P of 1 units/mg and an Uptake (units/mg), 18 h of 352 units/mg.
